Test results published in US20180071403A1 (Daiichi Sankyo, published 2018).

T1: human B7-H3 variant 1 (human, UniProt Q5ZPR3 27-534)
T1 sequence: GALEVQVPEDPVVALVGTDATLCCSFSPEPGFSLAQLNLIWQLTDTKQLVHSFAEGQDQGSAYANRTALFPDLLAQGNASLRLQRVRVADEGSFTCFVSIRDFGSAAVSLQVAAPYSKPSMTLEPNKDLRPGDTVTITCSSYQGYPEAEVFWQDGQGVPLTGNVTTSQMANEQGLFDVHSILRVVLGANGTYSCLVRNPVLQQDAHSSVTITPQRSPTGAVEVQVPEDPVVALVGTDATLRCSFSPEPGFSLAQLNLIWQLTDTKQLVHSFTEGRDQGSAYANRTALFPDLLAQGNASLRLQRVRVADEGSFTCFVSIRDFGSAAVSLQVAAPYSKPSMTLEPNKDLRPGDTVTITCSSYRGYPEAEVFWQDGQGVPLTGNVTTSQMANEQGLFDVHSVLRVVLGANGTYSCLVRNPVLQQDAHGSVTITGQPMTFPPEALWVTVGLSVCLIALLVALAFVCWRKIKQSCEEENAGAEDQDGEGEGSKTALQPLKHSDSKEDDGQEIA

T2: CD30 (UniProt P28908 19-595, limits assumed)
T2 sequence (looked up): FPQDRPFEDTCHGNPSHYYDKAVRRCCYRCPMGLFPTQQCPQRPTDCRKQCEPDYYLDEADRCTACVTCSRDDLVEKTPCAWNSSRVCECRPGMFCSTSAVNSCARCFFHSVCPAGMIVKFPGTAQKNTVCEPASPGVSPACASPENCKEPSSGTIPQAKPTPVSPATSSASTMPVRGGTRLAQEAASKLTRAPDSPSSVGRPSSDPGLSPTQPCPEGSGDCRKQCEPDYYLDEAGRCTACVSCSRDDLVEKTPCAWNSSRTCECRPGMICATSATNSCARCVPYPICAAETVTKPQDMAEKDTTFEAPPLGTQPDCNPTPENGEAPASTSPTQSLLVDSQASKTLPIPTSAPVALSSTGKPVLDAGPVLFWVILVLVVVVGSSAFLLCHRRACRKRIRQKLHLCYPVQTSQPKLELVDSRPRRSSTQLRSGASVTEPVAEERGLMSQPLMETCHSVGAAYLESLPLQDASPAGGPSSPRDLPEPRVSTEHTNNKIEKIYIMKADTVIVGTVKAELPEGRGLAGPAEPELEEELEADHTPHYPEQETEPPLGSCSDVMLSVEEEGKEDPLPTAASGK

B1: Antibody-drug conjugate (6) (antibody, human IgG1, kappa, V domains shown)
VH: QVQLVQSGAEVKKPGSSVKVSCKASGYTFTNYVMHWVRQAPGQGLEWMGYINPYNDDVKYNEKFKGRVTITADESTSTAYMELSSLRSEDTAVYYCARWGYYGSPLYYFDYWGQGTLVTVSS
VL: EIVLTQSPATLSLSPGERATLSCRASSRLIYMHWYQQKPGQAPRPLIYATSNLASGIPARFSGSGSGTDFTLTISSLEPEDFAVYYCQQWNSNPPTFGQGTKVEIKR
modifications: drug-linker -(Succinimid-3-yl-N)-CH2CH2CH2CH2CH2-C(=O)-DGGFG-NH-CH2CH2CH2-C(=O)-(NH-DX) (exatecan) bound by thioether at reduced hinge disulfide cysteines (positions not given); average 6.2 drug molecules per antibody
B2: Antibody-drug conjugate (23) (antibody, human IgG1, kappa, V domains shown)
VH: B1 VH
VL: B1 VL
modifications: drug-linker -(Succinimid-3-yl-N)-CH2CH2CH2CH2CH2-C(=O)-DGGFG-(NH-DX) (exatecan) bound by thioether at reduced hinge disulfide cysteines (positions not given); average 6.6 drug molecules per antibody
B3: M30 antibody (antibody, mouse IgG2a, kappa, V domains shown)
VH: EVQLQQSGPELVKPGASVKMSCKASGYTFTNYVMHWVKQKPGQGLEWIGYINPYNDDVKYNEKFKGKATQTSDKSSSTAYMELSSLTSEDSAVYYCARWGYYGSPLYYFDYWGQGTTLTVSS
VL: QIVLSQSPTILSASPGEKVTMTCRASSRLIYMHWYQQKPGSSPKPWIYATSNLASGVPARFSGSGSGTSYSLTISRVEAEDAATYYCQQWNSNPPTFGTGTKLELKR
notes: Mouse monoclonal anti-B7-H3 antibody from hybridoma M30
B4: Antibody-drug conjugate (10) (antibody, V domains shown)
VH: EVQLVQSGAEVKKPGSSVKVSCKASGYTITDSNIHWVRQAPGQSLEWIGYIYPYNGGTDYNQKFKNRATLTVDNPTNTAYMELSSLRSEDTAFYYCVNGNPWLAYWGQGTLVTVSS
VL: DIQLTQSPSTLSASVGDRVTITCRASQSLDNYGIRFLTWFQQKPGKAPKLLMYAASNQGSGVPSRFSGSGSGTEFTLTISSLQPDDFATYYCQQTKEVPWSFGQGTKVEVKR
modifications: drug-linker -(Succinimid-3-yl-N)-CH2CH2CH2CH2CH2-C(=O)-DGGFG-NH-CH2CH2CH2-C(=O)-(NH-DX) (exatecan) bound by thioether at reduced hinge disulfide cysteines (positions not given); average 6.6 drug molecules per antibody
B5: Antibody-drug conjugate (7) (antibody, V domains shown)
VH: QIQLQQSGPEVVKPGASVKISCKASGYTFTDYYITWVKQKPGQGLEWIGWIYPGSGNTKYNEKFKGKATLTVDTSSSTAFMQLSSLTSEDTAVYFCANYGNYWFAYWGQGTQVTVSA
VL: DIVLTQSPASLAVSLGQRATISCKASQSVDFDGDSYMNWYQQKPGQPPKVLIYAASNLESGIPARFSGSGSGTDFTLNIHPVEEEDAATYYCQQSNQDPWTFGGGTKLEIKR
modifications: drug-linker -(Succinimid-3-yl-N)-CH2CH2CH2CH2CH2-C(=O)-DGGFG-NH-CH2CH2CH2-C(=O)-(NH-DX) (exatecan) bound by thioether at reduced hinge disulfide cysteines (positions not given); average 4.6 drug molecules per antibody
B6: Antibody-drug conjugate (25) (antibody, V domains shown)
VH: B5 VH
VL: B5 VL
modifications: drug-linker -(Succinimid-3-yl-N)-CH2CH2CH2CH2CH2-C(=O)-DGGFG-(NH-DX) (exatecan) bound by thioether at reduced hinge disulfide cysteines (positions not given); average 4.8 drug molecules per antibody
B7: Antibody-drug conjugate (8) (antibody, V domains shown)
VH: B5 VH
VL: B5 VL
modifications: drug-linker -(Succinimid-3-yl-N)-CH2CH2CH2CH2CH2-C(=O)-DGGFG-NH-CH2CH2CH2-C(=O)-(NH-DX) (exatecan) bound by thioether at reduced hinge disulfide cysteines (positions not given); average 7.9 drug molecules per antibody
B8: Antibody-drug conjugate (24) (antibody, V domains shown)
VH: B5 VH
VL: B5 VL
modifications: drug-linker -(Succinimid-3-yl-N)-CH2CH2CH2CH2CH2-C(=O)-DGGFG-(NH-DX) (exatecan) bound by thioether at reduced hinge disulfide cysteines (positions not given); average 2.9 drug molecules per antibody

What was measured:
human B7-H3 variant 1 [1] = target: T1, human B7-H3 variant 1; assay: cell-based or functional assay
human B7-H3 variant 1 [2] = target: T1, human B7-H3 variant 1; assay: flow cytometry, M30 at 10 µg/mL on CCRF-CEM clones transfected with B7-H3 variant 1, fluorescein-labelled anti-mouse IgG
Protocol: Flow cytometry was used for confirming B7-H3 expression in each recovered clone. Specifically, each recovered clone was washed twice with PBS containing 5% FBS, thereafter suspended by the addition of PBS containing 5% FBS and 10 μg/mL M30, and left standing at 4° C. for 30 minutes. […] The clone was washed twice with PBS containing 5% FBS, thereafter resuspended in PBS containing 5% FBS, and detected by using a flow cytometer (FC500: Beckman Coulter, Inc.).

CD33 = CD33 (UniProt P20138 18-364, limits assumed); assay: cell-based or functional assay
CD30 = target: T2, CD30; assay: cell-based or functional assay

Sequence of CD33 (P20138 18-364 limits assumed): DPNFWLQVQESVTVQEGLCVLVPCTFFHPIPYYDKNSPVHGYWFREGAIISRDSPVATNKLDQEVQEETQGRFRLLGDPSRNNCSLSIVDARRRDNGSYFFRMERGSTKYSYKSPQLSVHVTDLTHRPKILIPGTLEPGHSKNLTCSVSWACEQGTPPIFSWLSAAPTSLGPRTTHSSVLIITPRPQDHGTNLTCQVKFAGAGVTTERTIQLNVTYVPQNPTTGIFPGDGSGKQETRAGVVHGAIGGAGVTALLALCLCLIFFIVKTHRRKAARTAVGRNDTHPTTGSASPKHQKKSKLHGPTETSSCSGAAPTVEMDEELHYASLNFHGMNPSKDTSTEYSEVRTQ

Row | Binder | IC50, anticellular effect (cell growth inhibition, CellTiter-Glo) on SR cells (CD30) | further results
1 | B1 | – | IC50, anticellular effect (cell growth inhibition, CellTiter-Glo) on CEM_V1_3.1_2 cells (human B7-H3 variant 1 [1]): < 0.1 nM
2 | B2 | – | IC50, anticellular effect (cell growth inhibition, CellTiter-Glo) on CEM_V1_3.1_2 cells (human B7-H3 variant 1 [1]): < 0.1 nM
3 | B3 | – | binding result (human B7-H3 variant 1 [2]): binds
4 | B4 | – | IC50, cytotoxic effect (cell growth inhibition, CellTiter-Glo) on HL-60 cells (CD33): < 1 nM
5 | B5 | < 0.01 nM | –
6 | B6 | < 0.01 nM | –
7 | B7 | < 0.01 nM | –
8 | B8 | < 0.01 nM | –
